# From patent US20110091994A1, “Methods for Screening Compounds for Treating and/or Preventing an Hepatitis C Virus Infection” (priority 2008, published 2011)
# B1: NID1 (protein, UniProt P14543 29-1247, looked up)
# Nidogen-1: LSRQELFPFGPGQGDLELEDGDDFVSPALELSGALRFYDRSDIDAVYVTTNGIIATSEPPAKESHPGLFPPTFGAVAPFLADLDTTDGLGKVYYREDLSPSITQRAAECVHRGFPEISFQPSSAVVVTWESVAPYQGPSRDPDQKGKRNTFQAVLASSDSSSYAIFLYPEDGLQFHTTFSKKENNQVPAVVAFSQGSVGFLWKSNGAYNIFANDRESVENLAKSSNSGQQGVWVFEIGSPATTNGVVPADVILGTEDGAEYDDEDEDYDLATTRLGLEDVGTTPFSYKALRRGGADTYSVPSVLSPRRAATERPLGPPTERTRSFQLAVETFHQQHPQVIDVDEVEETGVVFSYNTDSRQTCANNRHQCSVHAECRDYATGFCCSCVAGYTGNGRQCVAEGSPQRVNGKVKGRIFVGSSQVPIVFENTDLHSYVVMNHGRSYTAISTIPETVGYSLLPLAPVGGIIGWMFAVEQDGFKNGFSITGGEFTRQAEVTFVGHPGNLVIKQRFSGIDEHGHLTIDTELEGRVPQIPFGSSVHIEPYTELYHYSTSVITSSSTREYTVTEPERDGASPSRIYTYQWRQTITFQECVHDDSRPALPSTQQLSVDSVFVLYNQEEKILRYALSNSIGPVREGSPDALQNPCYIGTHGCDTNAACRPGPRTQFTCECSIGFRGDGRTCYDIDECSEQPSVCGSHTICNNHPGTFRCECVEGYQFSDEGTCVAVVDQRPINYCETGLHNCDIPQRAQCIYTGGSSYTCSCLPGFSGDGQACQDVDECQPSRCHPDAFCYNTPGSFTCQCKPGYQGDGFRCVPGEVEKTRCQHEREHILGAAGATDPQRPIPPGLFVPECDAHGHYAPTQCHGSTGYCWCVDRDGREVEGTRTRPGMTPPCLSTVAPPIHQGPAVPTAVIPLPPGTHLLFAQTGKIERLPLEGNTMRKTEAKAFLHVPAKVIIGLAFDCVDKMVYWTDITEPSIGRASLHGGEPTTIIRQDLGSPEGIAVDHLGRNIFWTDSNLDRIEVAKLDGTQRRVLFETDLVNPRGIVTDSVRGNLYWTDWNRDNPKIETSYMDGTNRRILVQDDLGLPNGLTFDAFSSQLCWVDAGTNRAECLNPSQPSRRKALEGLQYPFAVTSYGKNLYFTDWKMNSVVALDLAISKETDAFQPHKQTRLYGITTALSQCPQGHNYCSVNNGGCTHLCLATPGSRTCRCPDNTLGVDCIEQK
# B2: NELL1 (protein, UniProt Q92832 22-810, looked up)
# Protein kinase C-binding …: FGMDPDLQMDIVTELDLVNTTLGVAQVSGMHNASKAFLFQDIEREIHAAPHVSEKLIQLFRNKSEFTILATVQQKPSTSGVILSIRELEHSYFELESSGLRDEIRYHYIHNGKPRTEALPYRMADGQWHKVALSVSASHLLLHVDCNRIYERVIDPPDTNLPPGINLWLGQRNQKHGLFKGIIQDGKIIFMPNGYITQCPNLNHTCPTCSDFLSLVQGIMDLQELLAKMTAKLNYAETRLSQLENCHCEKTCQVSGLLYRDQDSWVDGDHCRNCTCKSGAVECRRMSCPPLNCSPDSLPVHIAGQCCKVCRPKCIYGGKVLAEGQRILTKSCRECRGGVLVKITEMCPPLNCSEKDHILPENQCCRVCRGHNFCAEGPKCGENSECKNWNTKATCECKSGYISVQGDSAYCEDIDECAAKMHYCHANTVCVNLPGLYRCDCVPGYIRVDDFSCTEHDECGSGQHNCDENAICTNTVQGHSCTCKPGYVGNGTICRAFCEEGCRYGGTCVAPNKCVCPSGFTGSHCEKDIDECSEGIIECHNHSRCVNLPGWYHCECRSGFHDDGTYSLSGESCIDIDECALRTHTCWNDSACINLAGGFDCLCPSGPSCSGDCPHEGGLKHNGQVWTLKEDRCSVCSCKDGKIFCRRTACDCQNPSADLFCCPECDTRVTSQCLDQNGHKLYRSGDNWTHSCQQCRCLEGEVDCWPLTCPNLSCEYTAILEGECCPRCVSDPCLADNITYDIRKTCLDSYGVSRLSGSVWTMAGSPCTTCKCKNGRVCCSVDFECLQNN
# B3: NEFL (protein, UniProt P07196 2-543, looked up)
# Neurofilament light …: SSFSYEPYYSTSYKRRYVETPRVHISSVRSGYSTARSAYSSYSAPVSSSLSVRRSYSSSSGSLMPSLENLDLSQVAAISNDLKSIRTQEKAQLQDLNDRFASFIERVHELEQQNKVLEAELLVLRQKHSEPSRFRALYEQEIRDLRLAAEDATNEKQALQGEREGLEETLRNLQARYEEEVLSREDAEGRLMEARKGADEAALARAELEKRIDSLMDEISFLKKVHEEEIAELQAQIQYAQISVEMDVTKPDLSAALKDIRAQYEKLAAKNMQNAEEWFKSRFTVLTESAAKNTDAVRAAKDEVSESRRLLKAKTLEIEACRGMNEALEKQLQELEDKQNADISAMQDTINKLENELRTTKSEMARYLKEYQDLLNVKMALDIEIAAYRKLLEGEETRLSFTSVGSITSGYSQSSQVFGRSAYGGLQTSSYLMSTRSFPSYYTSHVQEEQIEVEETIEAAKAEEAKDEPPSEGEAEEEEKDKEEAEEEEAAEEEEAAKEESEEAKEEEEGGEGEEGEETKEAEEEEKKVEGAGEEQAAKKKD
# B4: N-PAC (protein, UniProt Q49A26 1-553, looked up)
# Cytokine-like nuclear factor …: MAAVSLRLGDLVWGKLGRYPPWPGKIVNPPKDLKKPRGKKCFFVKFFGTEDHAWIKVEQLKPYHAHKEEMIKINKGKRFQQAVDAVEEFLRRAKGKDQTSSHNSSDDKNRRNSSEERSRPNSGDEKRKLSLSEGKVKKNMGEGKKRVSSGSSERGSKSPLKRAQEQSPRKRGRPPKDEKDLTIPESSTVKGMMAGPMAAFKWQPTASEPVKDADPHFHHFLLSQTEKPAVCYQAITKKLKICEEETGSTSIQAADSTAVNGSITPTDKKIGFLGLGLMGSGIVSNLLKMGHTVTVWNRTAEKCDLFIQEGARLGRTPAEVVSTCDITFACVSDPKAAKDLVLGPSGVLQGIRPGKCYVDMSTVDADTVTELAQVIVSRGGRFLEAPVSGNQQLSNDGMLVILAAGDRGLYEDCSSCFQAMGKTSFFLGEVGNAAKMMLIVNMVQGSFMATIAEGLTLAQVTGQSQQTLLDILNQGQLASIFLDQKCQNILQGNFKPDFYLKYIQKDLRLAIALGDAVNHPTPMAAAANEVYKRAKALDQSDNDMSAVYRAYIH
# B5: NID2 (protein, UniProt Q14112 31-1375, looked up)
# Nidogen-2: LHPDELFPHGESWGDQLLQEGDDESSAVVKLANPLHFYEARFSNLYVGTNGIISTQDFPRETQYVDYDFPTDFPAIAPFLADIDTSHGRGRVLYREDTSPAVLGLAARYVRAGFPRSARFTPTHAFLATWEQVGAYEEVKRGALPSGELNTFQAVLASDGSDSYALFLYPANGLQFLGTRPKESYNVQLQLPARVGFCRGEADDLKSEGPYFSLTSTEQSVKNLYQLSNLGIPGVWAFHIGSTSPLDNVRPAAVGDLSAAHSSVPLGRSFSHATALESDYNEDNLDYYDVNEEEAEYLPGEPEEALNGHSSIDVSFQSKVDTKPLEESSTLDPHTKEGTSLGEVGGPDLKGQVEPWDERETRSPAPPEVDRDSLAPSWETPPPYPENGSIQPYPDGGPVPSEMDVPPAHPEEEIVLRSYPASGHTTPLSRGTYEVGLEDNIGSNTEVFTYNAANKETCEHNHRQCSRHAFCTDYATGFCCHCQSKFYGNGKHCLPEGAPHRVNGKVSGHLHVGHTPVHFTDVDLHAYIVGNDGRAYTAISHIPQPAAQALLPLTPIGGLFGWLFALEKPGSENGFSLAGAAFTHDMEVTFYPGEETVRITQTAEGLDPENYLSIKTNIQGQVPYVSANFTAHISPYKELYHYSDSTVTSTSSRDYSLTFGAINQTWSYRIHQNITYQVCRHAPRHPSFPTTQQLNVDRVFALYNDEERVLRFAVTNQIGPVKEDSDPTPGNPCYDGSHMCDTTARCHPGTGVDYTCECASGYQGDGRNCVDENECATGFHRCGPNSVCINLPGSYRCECRSGYEFADDRHTCILITPPANPCEDGSHTCAPAGQARCVHHGGSTFSCACLPGYAGDGHQCTDVDECSENRCHPAATCYNTPGSFSCRCQPGYYGDGFQCIPDSTSSLTPCEQQQRHAQAQYAYPGARFHIPQCDEQGNFLPLQCHGSTGFCWCVDPDGHEVPGTQTPPGSTPPHCGPSPEPTQRPPTICERWRENLLEHYGGTPRDDQYVPQCDDLGHFIPLQCHGKSDFCWCVDKDGREVQGTRSQPGTTPACIPTVAPPMVRPTPRPDVTPPSVGTFLLYTQGQQIGYLPLNGTRLQKDAAKTLLSLHGSIIVGIDYDCRERMVYWTDVAGRTISRAGLELGAEPETIVNSGLISPEGLAIDHIRRTMYWTDSVLDKIESALLDGSERKVLFYTDLVNPRAIAVDPIRGNLYWTDWNREAPKIETSSLDGENRRILINTDIGLPNGLTFDPFSKLLCWADAGTKKLECTLPDGTGRRVIQNNLKYPFSIVSYADHFYHTDWRRDGVVSVNKHSGQFTDEYLPEQRSHLYGITAVYPYCPTGRK
# B6: NEFM (protein, UniProt P07197 2-916, looked up)
# Neurofilament medium …: SYTLDSLGNPSAYRRVTETRSSFSRVSGSPSSGFRSQSWSRGSPSTVSSSYKRSMLAPRLAYSSAMLSSAESSLDFSQSSSLLNGGSGPGGDYKLSRSNEKEQLQGLNDRFAGYIEKVHYLEQQNKEIEAEIQALRQKQASHAQLGDAYDQEIRELRATLEMVNHEKAQVQLDSDHLEEDIHRLKERFEEEARLRDDTEAAIRALRKDIEEASLVKVELDKKVQSLQDEVAFLRSNHEEEVADLLAQIQASHITVERKDYLKTDISTALKEIRSQLESHSDQNMHQAEEWFKCRYAKLTEAAEQNKEAIRSAKEEIAEYRRQLQSKSIELESVRGTKESLERQLSDIEERHNHDLSSYQDTIQQLENELRGTKWEMARHLREYQDLLNVKMALDIEIAAYRKLLEGEETRFSTFAGSITGPLYTHRPPITISSKIQKPKVEAPKLKVQHKFVEEIIEETKVEDEKSEMEEALTAITEELAVSMKEEKKEAAEEKEEEPEAEEEEVAAKKSPVKATAPEVKEEEGEKEEEEGQEEEEEEDEGAKSDQAEEGGSEKEGSSEKEEGEQEEGETEAEAEGEEAEAKEEKKVEEKSEEVATKEELVADAKVEKPEKAKSPVPKSPVEEKGKSPVPKSPVEEKGKSPVPKSPVEEKGKSPVPKSPVEEKGKSPVSKSPVEEKAKSPVPKSPVEEAKSKAEVGKGEQKEEEEKEVKEAPKEEKVEKKEEKPKDVPEKKKAESPVKEEAVAEVVTITKSVKVHLEKETKEEGKPLQQEKEKEKAGGEGGSEEEGSDKGAKGSRKEDIAVNGEVEGKEEVEQETKEKGSGREEEKGVVTNGLDLSPADEKKGGDKSEEKVVVTKTVEKITSEGGDGATKYITKSVTVTQKVEEHEETFEEKLVSTKKVEKVTSHAIVKEVTQSD
# Test system: HCV ORFs (Gal4-DB fusions)
# Experiment: not given
# Type: binding, HCV genotype 1b, isolate con1
# Conditions: human protein listed by gene symbol; the value names the HCV protein it interacts with
# 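Throughout, for IMAP Y2H IMAP1 (number of IST): yeast two-hybrid screens using HCV genotype 1b proteins fused to Gal4-DB as baits against prey cDNA libraries from human spleen and foetal brain, IMAP1 via transformation and IMAP2 via mating.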
# 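Throughout, for IMAP Y2H IMAP2 (number of IST): yeast two-hybrid screens using HCV genotype 1b proteins fused to Gal4-DB as baits against prey cDNA libraries from human spleen and foetal brain, IMAP1 via transformation and IMAP2 via mating.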
# 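Throughout, for Interaction with viral protein: yeast two-hybrid screens using HCV genotype 1b proteins fused to Gal4-DB as baits against prey cDNA libraries from human spleen and foetal brain, IMAP1 via transformation and IMAP2 via mating.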
row,Molecule,Interaction with viral protein
1,B1,NS3
2,B2,NS3
3,B3,NS3
4,B4,NS3
5,B5,NS3
6,B6,NS3

# Target: T1, HCV ORFs (Gal4-DB fusions) (Hepatitis C virus genotype 1b, UniProt Q9WMX2)
# T1 construct: expressed in transfected cells; host or cells: Saccharomyces cerevisiae MAV203 (IMAP1) / AH109 (IMAP2)
# T1 sequence (Q9WMX2 1027-1657): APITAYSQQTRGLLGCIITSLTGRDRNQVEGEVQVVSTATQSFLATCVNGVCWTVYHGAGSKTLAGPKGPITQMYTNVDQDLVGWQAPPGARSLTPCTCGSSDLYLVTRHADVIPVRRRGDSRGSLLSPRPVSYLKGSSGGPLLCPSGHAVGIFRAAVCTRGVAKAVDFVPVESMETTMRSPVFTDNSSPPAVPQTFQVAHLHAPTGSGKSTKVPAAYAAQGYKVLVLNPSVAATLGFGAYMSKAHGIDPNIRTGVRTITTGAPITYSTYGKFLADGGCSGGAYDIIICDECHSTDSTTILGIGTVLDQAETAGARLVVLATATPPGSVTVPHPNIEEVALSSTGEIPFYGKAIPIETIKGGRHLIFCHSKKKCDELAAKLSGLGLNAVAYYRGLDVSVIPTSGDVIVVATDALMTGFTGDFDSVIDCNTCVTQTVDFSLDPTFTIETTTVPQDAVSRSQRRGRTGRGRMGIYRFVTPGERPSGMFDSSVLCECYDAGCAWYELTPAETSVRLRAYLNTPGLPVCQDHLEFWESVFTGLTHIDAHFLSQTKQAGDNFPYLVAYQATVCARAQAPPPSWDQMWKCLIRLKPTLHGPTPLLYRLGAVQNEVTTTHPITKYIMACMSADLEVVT
# Experiment: not given
# Type: binding, HCV genotype 1b, isolate con1
# Conditions: HCV protein NS3 as bait; human protein as prey
Molecule,IMAP Y2H IMAP1 (number of IST),IMAP Y2H IMAP2 (number of IST)
B1,2,
B2,3,
B3,1,
B4,2,11
B5,2,
B6,1,

# Target: T2, HCV proteins (Hepatitis C virus genotype 1b, UniProt Q9WMX2)
# T2 construct: expressed in transfected cells
# T2 sequence (Q9WMX2 1027-1657): as above
# Experiment: Validation by Y2H pairwise matrices;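 note: yeast two-hybrid pairwise tests of interactions first found in Y2H screens of HCV bait proteins against human cDNA libraries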
# Type: binding
# Conditions: validation of interaction with HCV protein NS3
# Method: A comprehensive interactome map between HCV and cellular proteins was generated by Y2H screens. Twenty seven constructs encoding full-length HCV mature proteins or discrete domains were cloned using a recombination-based cloning system (10) (FIG. 6). Four independent screens were performed with each HCV bait protein, probing two distinct human cDNA libraries (Supplementary Methods). […] Two validation methods were used to assess the confidence of the IMAP Y2H dataset.
row,Molecule,Y2H matrices
1,B1,+
2,B2,+
3,B3,+
4,B4,+
5,B5,+
6,B6,+
